From paper PMC4847170, “Insights into the DNA-binding mechanism of a LytTR-type transcription regulator”

Tests used:
Conditions in all cases: protein: recombinant; tags: N-terminal 6His; chain copies: 2; label: 5' biotin on strand 1; blunt
[1] = biological target: T1, YpdB-D53E (Escherichia coli, UniProt P0AE39 1-244, D53E); test: SPR; 1-50 nM protein; binding completely abolished; SPR (Biacore T200, SA chip): HBS-EP, 10 mM HEPES pH 7.4, 150 mM NaCl, 3 mM EDTA, 0.005% P20, 25 C
T1 sequence: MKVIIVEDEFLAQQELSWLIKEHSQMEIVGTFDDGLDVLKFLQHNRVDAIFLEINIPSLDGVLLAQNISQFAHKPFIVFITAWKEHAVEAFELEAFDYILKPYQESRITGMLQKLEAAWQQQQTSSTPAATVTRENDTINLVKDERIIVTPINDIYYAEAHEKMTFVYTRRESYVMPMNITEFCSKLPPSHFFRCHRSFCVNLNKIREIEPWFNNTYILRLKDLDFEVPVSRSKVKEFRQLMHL

[2] = biological target: T2, YpdB (Escherichia coli, UniProt P0AE39 1-244); test: SPR; 1-50 nM protein; lower maximal binding rate and affinity than D53E; SPR (Biacore T200, SA chip): HBS-EP, 10 mM HEPES pH 7.4, 150 mM NaCl, 3 mM EDTA, 0.005% P20, 25 C
T2 sequence: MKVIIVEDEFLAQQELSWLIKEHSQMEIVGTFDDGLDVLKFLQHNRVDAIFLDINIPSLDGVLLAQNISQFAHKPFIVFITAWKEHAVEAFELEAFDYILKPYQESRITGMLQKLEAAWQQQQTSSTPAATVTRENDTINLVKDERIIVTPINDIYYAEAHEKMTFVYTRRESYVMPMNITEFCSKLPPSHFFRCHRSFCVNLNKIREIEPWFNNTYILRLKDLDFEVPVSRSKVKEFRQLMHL

[3] = biological target: T1, YpdB-D53E; test: SPR; overall affinity from maximal binding rates, active protein concentration; SPR (Biacore T200, SA chip): HBS-EP, 10 mM HEPES pH 7.4, 150 mM NaCl, 3 mM EDTA, 0.005% P20, 25 C

Binder | binding result [1] | binding result [2] | Kd [3] [nM]
PyhjX_A (site A inactivated) (dsDNA) DNA 1: GGGGCGCGTCATTCATTCCTGAACTAATTACGGGACGTCCGTTCTGATGGCATTTCATGCCGGGGG DNA 2: CCCCCGGCATGAAATGCCATCAGAACGGACGTCCCGTAATTAGTTCAGGAATGAATGACGCGCCCC | no binding |  | 
PyhjX (dsDNA) DNA 1: GGGGCGCGTCATTCATTCCTGAACTAAGGCATTTCATTCCGTTCTGATGGCATTTCATGCCGGGGG DNA 2: CCCCCGGCATGAAATGCCATCAGAACGGAATGAAATGCCTTAGTTCAGGAATGAATGACGCGCCCC |  | binds | 10
